For data set [1] the following is noted: cynomolgus monkey, cited from earlier work.
Data set [2] can be described thus: Storage of ADCs in mouse-plasma for 7 days at 37° C. In kind it is in vitro ADME. The note with it: for DARav after plasma incubation n = 2 / Payload lost: mouse-plasma, 7 days at 37° C.
The nature of data set [3]: Repeated dose toxicity and toxicokinetics study in rats. The note with it: for Glucose level: one ADC compared to the other. The format is in vivo, Sprague Dawley rats. As to the method:
Experiments were performed in accordance with animal welfare law and approved by local authorities. […] Clinical observations, body weight and food consumption were determined daily throughout the study. Pharmacokinetic samples were obtained prior to each dose, 15 minutes post each dose and at necropsy from each animal. All animals were necropsied, with organs weighed and retained in fixative. Clinical pathology (hematology, clinical chemistry and coagulation end-points) samples were also taken at necropsy.
Clinical observations, body weight and food consumption were determined daily throughout the study. Pharmacokinetic samples were obtained prior to each dose, 15 minutes post each dose and at necropsy from each animal. All animals were necropsied, with organs weighed and retained in fixative. Clinical pathology (hematology, clinical chemistry, and coagulation endpoints) samples were also taken at necropsy.
As reference, rats were dosed with a control (vehicle) (data not shown).

In a further data set the target is cathepsin B (Homo sapiens, UniProt P07858). The experiment in a line: Digestion of vc payloads with protease cathepsin B, RP-HPLC. The format is biochemical. The note with it: cathepsin B 1:1000 for each vc moiety. As to the method:
Prior to the conjugation with the antibody, payloads 2 and 3 have been analyzed for their susceptibility to cleavage by the protease cathepsin B (FIGS. 5A-5C).
FIGS. 5A-5C show in FIG. 5A an RP-HPLC analysis of the valine-citrulline (vc) containing payload 2 during digestion reaction with the protease cathepsin B (1:1000 for each vc moiety). Prior to analysis the reaction was stopped with E-64. The chromatogram after a reaction time of 150 min was recorded at 220 nm. […] During the reaction of payload 3 with cathepsin B an intermediate is formed (grey, triangle) which contains one MMAE moiety.

The nature of data set [4]: Repeated dose toxicity and toxicokinetic study in cynomolgus monkey. The format is in vivo. As for the experimental part:
Clinical condition (incl. bodyweight, food consumption & clinical observations), clinical pathology and immunophenotyping (T, B and NK cells) was evaluated throughout the study, with frequent sampling for TK and anti-drug antibody determination. All animals were subject to full necropsy with detailed macroscopic observations.
Bodyweight is depicted in kilogram, lymphocytes in billion per liter, neutrophiles in billion per liter and white blood cells in billion per liter.

Where [5] appears, read: rat, 10 mg/kg weekly, compared to the Brentuximab Tub-tag ADC.
Setting [6] is: cynomolgus monkey, 6, 12 and 15 mg/kg.
Where [7] appears, read: cynomolgus monkey, 6, 12 and 15 mg/kg repeated dose.

“Brentuximab vedotin: approved CD30 ADC: chimeric IgG1 brentuximab, Cathepsin B cleavable Valin-Citrulline linker, Monomethyl-Auristatin E; maleimide-linked, DARav 4”: the “tolerability at 6 mg/kg” value in data set [1] (6 mg/kg) is listed as “poorly tolerated”. Also, the MTD in data set [1] is 3 mg/kg. Besides, in data set [2], the “DAR before plasma incubation” value was determined as 4.02, the “DARav after plasma incubation n = 2” value came to 1.53 and the Payload lost came out at 62%. In data set [3] (rat, 10 mg/kg weekly), the Hematocrit entry is recorded as “reduces hematocrit (mainly in males)”, the Hemoglobin levels result is “reduces hemoglobin levels (mainly in males)”, the “MMAE driven testes changes” value is “testes changes were observed” and the “Red blood cell count” value is given as “marked impact”. In data set [3] (rat, 10 mg/kg weekly), the Reticulocytes count entry is “marked impact” and the Glucose level entry was “greater level of glucose”. Further, in data set [3] (setting [5]), the APTT entry is recorded as “lower APTT values”, the Eosinophils counts result is “lower eosinophils counts”, the Testis weight entry is recorded as “lower testis weight” and the Thymus weight result is reported as “lower thymus weight”.

Turning to “Bren. HC-2: Brentuximab with Tub-tag on heavy chains (SEQ ID NO: 2/12), 3-formyl-L-tyrosine, oxime-linked Payload 2 (vc-PAB-MMAE), DAR 2”, in data set [2], the “DAR before plasma incubation” value came to 2, the “DARav after plasma incubation n = 2” value is 1.8 and the Payload lost is listed as 10%.

With `CC[C@H](C)[C@H]([C@H](CC(=O)N1CCC[C@@H]1[C@@H](OC)[C@H](C)C(=O)N[C@@H](C)[C@H](O)c1ccccc1)OC)N(C)C(=O)[C@H](NC(O)[C@@H](C(C)C)N(C)C(=O)OCc1ccc(NC(=O)[C@@H](CCCNC(N)=O)NC(=O)[C@H](NC(=O)CON)C(C)C)cc1)C(C)C` (stereo partly shown) [payload 2, HA-VC-PAB-MMAE], the “susceptibility to cleavage by cathepsin B, release of free MMAE” value on cathepsin B is “cleaved by cathepsin B”.

In the case of HA-(VC-PAB-MMAE)2 [payload 3], the “susceptibility to cleavage by cathepsin B, release of free MMAE” value on cathepsin B is “cleaved by cathepsin B”.

As to “Bren. LC-2: Brentuximab with Tub-tag on light chains (SEQ ID NO: 11/1), 3-formyl-L-tyrosine, oxime-linked Payload 2 (vc-PAB-MMAE), DAR 2”, in data set [4] (setting [6]), the “lymphocytes concentration and white blood cells concentration” value is “No significant changes”; the “reduction in neutrophiles in comparison to Brentuximab vedotin (3 mg/kg)” value is “does not cause a higher amount of reduction in neutrophiles”. Also, in data set [4] (setting [7]), the clinical tolerability entry was “clinically well tolerated”; the “mortality, macroscopic and microscopic findings” value is “no mortality and no macroscopic or sever microscopic findings”. In data set [4] (cynomolgus monkey, at 12 & 15 mg/kg), the “reductions in red blood cells, hemoglobin and neutrophils” value is “relatively consistent to those observed with Adcetris at 3 mg/kg”. In data set [2], the “DAR before plasma incubation” value turned out to be 2, the “DARav after plasma incubation n = 2” value is on record as 1.8 and the Payload lost turned out to be 10%. Further, the “overall safety profile in the rat” value in data set [3] (10 mg/kg weekly) is “better safety profile compared to Brentuximab vedotin”. For the same compound, in data set [3] (rat, 10 mg/kg i.v. at day 1, 8, 15 and 22), the “serum concentrations after repeated doses” value is on record as “reasonable levels of serum concentrations”. In data set [3] (rat, 10 mg/kg weekly), the Hematocrit result was “no marked effect”, the Hemoglobin levels result is listed as “no marked effect”, the “MMAE driven testes changes” value is listed as “delayed in onset” and the “Red blood cell count” value was “no marked effect”. In data set [3] (rat, 10 mg/kg weekly), the Reticulocytes count result was “no effect”, the “impact on red blood cell populations” value was “no impact on red blood cell populations” and the Glucose level result is “lower glucose levels”.
